Paper PMC2719906 (Nature, 2008)

T1: WASP GBD (GTPase binding domain, residues 242-310) (UniProt P42768 242-310)
T1 sequence (looked up): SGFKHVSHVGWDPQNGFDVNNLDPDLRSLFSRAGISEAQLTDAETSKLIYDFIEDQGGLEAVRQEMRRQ

B1: N-WASPC (N-WASP residues 193-501) (domain or fragment)
chain: KRLTKADIGTPSNFQHIGHVGWDPNTGFDLNNLDPELKNLFDMCGISEAQLKDRETSKVIYDFIEKTGGVEAVKNELRRQAPPPPPPSRGGPPPPPPPPHSSGPPPPPARGRGAPPPPPSRAPTAAPPPPPPSRPGVVVPPPPPNRMYPPPPPALPSSAPSGPPPPPPLSMAGSTAPPPPPPPPPPPGPPPPPGLPSDGDHQVPASSGNKAALLDQIREGAQLKKVEQNSRPVSCSGRDALLDQIRQGIQLKSVSDGQESTPPTPAPTSGIVGALMEVMQKRSKAIHSSDEDEDDDDEEDFQDDDEWED
B2: EspFU R33 (N-terminal 33-residue fragment of the fifth repeat) (domain or fragment)
chain: LPDVAQRLMQHLAEHGIQPARNMAEHIPPAPNW
B3: EspFU R18 peptide (peptide)
peptide: LPDVAQRLMQHLAEHGIQ

What was measured:
[1] = target: EspFU R47 (full 47-residue fifth repeat of EspFU) (enterohaemorrhagic E. coli (EHEC, …, UniProt P0DJ88 268-314)); experiment: ITC
[2] = target: T1, WASP GBD (GTPase binding domain, …); experiment: NMR titration
[3] = target: B1; experiment: ITC

| Binder | Kd [1] | stoichiometry N [2] | Kd [3] |
| --- | --- | --- | --- |
| B1 | 35 nM |  |  |
| B2 |  | 1 EspFU:GBD | 35 nM |
| B3 |  |  | 4000 nM |
